Legend:
[1] = biological target: SARS-CoV-2 RBD (SinoBiological, Cat. No. 40592-V02H) (SARS-CoV-2) (UniProt P0DTC2)
[2] = biological target: SARS-CoV-2 RBD (SinoBiological, Cat. No. 40592-V02H) (SARS-CoV-2) (UniProt P0DTC2); experiment: ELISA on RBD

What does the source list for VHH-72 D61S?
fold enhanced binding [1]: 3 fold; EC50 [2]: 0.17 µg/mL
